# Test results reported in IntAct's records for PubMed 31515488.
# B1: DNA endonuclease RBBP8 (Homo sapiens), Q99708 (parent)
# chain: MNISGSSCGSPNSADTSSDFKDLWTKLKECHDREVQGLQVKVTKLKQERILDAQRLEEFFTKNQQLREQQKVLHETIKVLEDRLRAGLCDRCAVTEEHMRKKQQEFENIRQQNLKLITELMNERNTLQEENKKLSEQLQQKIENDQQHQAAELECEEDVIPDSPITAFSFSGVNRLRRKENPHVRYIEQTHTKLEHSVCANEMRKVSKSSTHPQHNPNENEILVADTYDQSQSPMAKAHGTSSYTPDKSSFNLATVVAETLGLGVQEESETQGPMSPLGDELYHCLEGNHKKQPFEESTRNTEDSLRFSDSTSKTPPQEELPTRVSSPVFGATSSIKSGLDLNTSLSPSLLQPGKKKHLKTLPFSNTCISRLEKTRSKSEDSALFTHHSLGSEVNKIIIQSSNKQILINKNISESLGEQNRTEYGKDSNTDKHLEPLKSLGGRTSKRKKTEEESEHEVSCPQASFDKENAFPFPMDNQFSMNGDCVMDKPLDLSDRFSAIQRQEKSQGSETSKNKFRQVTLYEALKTIPKGFSSSRKASDGNCTLPKDSPGEPCSQECIILQPLNKCSPDNKPSLQIKEENAVFKIPLRPRESLETENVLDDIKSAGSHEPIKIQTRSDHGGCELASVLQLNPCRTGKIKSLQNNQDVSFENIQWSIDPGADLSQYKMDVTVIDTKDGSQSKLGGETVDMDCTLVSETVLLKMKKQEQKGEKSSNEERKMNDSLEDMFDRTTHEEYESCLADSFSQAADEEEELSTATKKLHTHGDKQDKVKQKAFVEPYFKGDERETSLQNFPHIEVVRKKEERRKLLGHTCKECEIYYADMPAEEREKKLASCSRHRFRYIPPNTPENFWEVGFPSTQTCMERGYIKEDLDPCPRPKRRQPYNAIFSPKGKEQKT
# B2: Protein LRATD2 (Homo sapiens), Q96KN1 (parent)
# chain: MGNQVEKLTHLSYKEVPTADPTGVDRDDGPRIGVSYIFSNDDEDVEPQPPPQGPDGGGLPDGGDGPPPPQPQPYDPRLHEVECSVFYRDECIYQKSFAPGSAALSTYTPENLLNKCKPGDLVEFVSQAQYPHWAVYVGNFQVVHLHRLEVINSFLTDASQGRRGRVVNDLYRYKPLSSSAVVRNALAHVGAKERELSWRNSESFAAWCRYGKREFKIGGELRIGKQPYRLQIQLSAQRSHTLEFQSLEDLIMEKRRNDQIGRAAVLQELATHLHPAEPEEGDSNVARTTPPPGRPPAPSSEEEDGEAVAH
# partner: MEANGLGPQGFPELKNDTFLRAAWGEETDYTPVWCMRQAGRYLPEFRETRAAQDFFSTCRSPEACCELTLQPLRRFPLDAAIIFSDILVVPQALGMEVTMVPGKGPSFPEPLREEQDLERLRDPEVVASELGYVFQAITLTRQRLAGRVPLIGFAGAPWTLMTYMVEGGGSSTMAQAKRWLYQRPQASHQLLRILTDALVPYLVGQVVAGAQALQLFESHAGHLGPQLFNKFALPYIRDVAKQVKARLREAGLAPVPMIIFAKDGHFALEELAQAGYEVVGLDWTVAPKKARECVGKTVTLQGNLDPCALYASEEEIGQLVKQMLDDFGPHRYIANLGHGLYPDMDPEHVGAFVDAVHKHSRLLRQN
# B3: Zyxin (Homo sapiens), Q15942 (parent)
# chain: MAAPRPSPAISVSVSAPAFYAPQKKFGPVVAPKPKVNPFRPGDSEPPPAPGAQRAQMGRVGEIPPPPPEDFPLPPPPLAGDGDDAEGALGGAFPPPPPPIEESFPPAPLEEEIFPSPPPPPEEEGGPEAPIPPPPQPREKVSSIDLEIDSLSSLLDDMTKNDPFKARVSSGYVPPPVATPFSSKSSTKPAAGGTAPLPPWKSPSSSQPLPQVPAPAQSQTQFHVQPQPQPKPQVQLHVQSQTQPVSLANTQPRGPPASSPAPAPKFSPVTPKFTPVASKFSPGAPGGSGSQPNQKLGHPEALSAGTGSPQPPSFTYAQQREKPRVQEKQHPVPPPAQNQNQVRSPGAPGPLTLKEVEELEQLTQQLMQDMEHPQRQNVAVNELCGRCHQPLARAQPAVRALGQLFHIACFTCHQCAQQLQGQQFYSLEGAPYCEGCYTDTLEKCNTCGEPITDRMLRATGKAYHPHCFTCVVCARPLEGTSFIVDQANRPHCVPDYHKQYAPRCSVCSEPIMPEPGRDETVRVVALDKNFHMKCYKCEDCGKPLSIEADDNGCFPLDGHVLCRKCHTARAQT
# partner: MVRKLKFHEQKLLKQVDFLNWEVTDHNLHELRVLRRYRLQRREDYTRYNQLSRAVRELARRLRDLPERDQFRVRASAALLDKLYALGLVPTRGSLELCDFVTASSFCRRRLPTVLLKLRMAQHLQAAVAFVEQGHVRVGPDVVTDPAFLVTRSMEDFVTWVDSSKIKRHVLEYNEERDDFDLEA
# B4: Microtubule-associated tumor suppressor candidate 2 (Homo sapiens), Q5JR59-3 (parent)
# chain: MGHCCCKPYNCLQCLDKTNESALVKEKELSIELANIRDEVAFHTAKCEKLQKEKEELERRFEDEVKRLGWQQQAELQELEERLQLQFEAEMARLQEEHGDQLLSIRCQHQEQVEDLTASHDAALLEMENNHTVAITILQDDHDHKVQELMSTHELEKKELEENFEKLRLSLQDQVDTLTFQSQSLRDRARRFEEALRKNTEEQLEIALAPYQHLEEDMKSLKQVLEMKNQQIHEQEKKILELEKLAEKNIILEEKIQVLQQQNEDLKARIDQNTVVTRQLSEENANLQEYVEKETQEKKRLSRTNEELLWKLQTGDPTSPIKLSPTSPVYRGSSSGPSSPARVSTTPR
# partner: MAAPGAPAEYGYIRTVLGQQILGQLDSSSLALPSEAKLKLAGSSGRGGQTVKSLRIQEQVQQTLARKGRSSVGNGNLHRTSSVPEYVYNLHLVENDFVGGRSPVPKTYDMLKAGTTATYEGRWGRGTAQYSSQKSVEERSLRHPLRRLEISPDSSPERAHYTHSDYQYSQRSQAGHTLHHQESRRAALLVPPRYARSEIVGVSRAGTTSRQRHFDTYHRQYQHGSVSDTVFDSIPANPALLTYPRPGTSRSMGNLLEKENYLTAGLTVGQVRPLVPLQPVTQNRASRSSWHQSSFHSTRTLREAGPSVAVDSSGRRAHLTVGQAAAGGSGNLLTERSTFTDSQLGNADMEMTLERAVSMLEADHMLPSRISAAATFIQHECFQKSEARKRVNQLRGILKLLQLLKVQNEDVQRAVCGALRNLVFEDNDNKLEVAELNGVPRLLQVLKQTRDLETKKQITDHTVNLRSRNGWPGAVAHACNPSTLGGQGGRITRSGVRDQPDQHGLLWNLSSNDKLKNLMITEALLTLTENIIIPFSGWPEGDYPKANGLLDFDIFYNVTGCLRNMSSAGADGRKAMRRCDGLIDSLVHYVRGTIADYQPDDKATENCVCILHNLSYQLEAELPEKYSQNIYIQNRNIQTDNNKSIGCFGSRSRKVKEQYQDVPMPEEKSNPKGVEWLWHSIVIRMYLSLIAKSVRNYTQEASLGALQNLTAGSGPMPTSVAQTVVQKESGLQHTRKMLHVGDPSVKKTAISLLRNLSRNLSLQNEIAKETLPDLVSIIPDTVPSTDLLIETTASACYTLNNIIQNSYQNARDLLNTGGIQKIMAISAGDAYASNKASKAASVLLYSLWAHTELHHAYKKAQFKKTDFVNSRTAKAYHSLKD
# B5: Protein transport protein (Homo sapiens), Q15437 (parent)
# chain: MATYLEFIQQNEERDGVRFSWNVWPSSRLEATRMVVPLACLLTPLKERPDLPPVQYEPVLCSRPTCKAVLNPLCQVDYRAKLWACNFCFQRNQFPPAYGGISEVNQPAELMPQFSTIEYVIQRGAQSPLIFLYVVDTCLEEDDLQALKESLQMSLSLLPPDALVGLITFGRMVQVHELSCEGISKSYVFRGTKDLTAKQIQDMLGLTKPAMPMQQARPAQPQEHPFASSRFLQPVHKIDMNLTDLLGELQRDPWPVTQGKRPLRSTGVALSIAVGLLEGTFPNTGARIMLFTGGPPTQGPGMVVGDELKIPIRSWHDIEKDNARFMKKATKHYEMLANRTAANGHCIDIYACALDQTGLLEMKCCANLTGGYMVMGDSFNTSLFKQTFQRIFTKDFNGDFRMAFGATLDVKTSRELKIAGAIGPCVSLNVKGPCVSENELGVGGTSQWKICGLDPTSTLGIYFEVVNQHNTPIPQGGRGAIQFVTHYQHSSTQRRIRVTTIARNWADVQSQLRHIEAAFDQEAAAVLMARLGVFRAESEEGPDVLRWLDRQLIRLCQKFGQYNKEDPTSFRLSDSFSLYPQFMFHLRRSPFLQVFNNSPDESSYYRHHFARQDLTQSLIMIQPILYSYSFHGPPEPVLLDSSSILADRILLMDTFFQIVIYLGETIAQWRKAGYQDMPEYENFKHLLQAPLDDAQEILQARFPMPRYINTEHGGSQARFLLSKVNPSQTHNNLYAWGQETGAPILTDDVSLQVFMDHLKKLAVSSAC
# partner: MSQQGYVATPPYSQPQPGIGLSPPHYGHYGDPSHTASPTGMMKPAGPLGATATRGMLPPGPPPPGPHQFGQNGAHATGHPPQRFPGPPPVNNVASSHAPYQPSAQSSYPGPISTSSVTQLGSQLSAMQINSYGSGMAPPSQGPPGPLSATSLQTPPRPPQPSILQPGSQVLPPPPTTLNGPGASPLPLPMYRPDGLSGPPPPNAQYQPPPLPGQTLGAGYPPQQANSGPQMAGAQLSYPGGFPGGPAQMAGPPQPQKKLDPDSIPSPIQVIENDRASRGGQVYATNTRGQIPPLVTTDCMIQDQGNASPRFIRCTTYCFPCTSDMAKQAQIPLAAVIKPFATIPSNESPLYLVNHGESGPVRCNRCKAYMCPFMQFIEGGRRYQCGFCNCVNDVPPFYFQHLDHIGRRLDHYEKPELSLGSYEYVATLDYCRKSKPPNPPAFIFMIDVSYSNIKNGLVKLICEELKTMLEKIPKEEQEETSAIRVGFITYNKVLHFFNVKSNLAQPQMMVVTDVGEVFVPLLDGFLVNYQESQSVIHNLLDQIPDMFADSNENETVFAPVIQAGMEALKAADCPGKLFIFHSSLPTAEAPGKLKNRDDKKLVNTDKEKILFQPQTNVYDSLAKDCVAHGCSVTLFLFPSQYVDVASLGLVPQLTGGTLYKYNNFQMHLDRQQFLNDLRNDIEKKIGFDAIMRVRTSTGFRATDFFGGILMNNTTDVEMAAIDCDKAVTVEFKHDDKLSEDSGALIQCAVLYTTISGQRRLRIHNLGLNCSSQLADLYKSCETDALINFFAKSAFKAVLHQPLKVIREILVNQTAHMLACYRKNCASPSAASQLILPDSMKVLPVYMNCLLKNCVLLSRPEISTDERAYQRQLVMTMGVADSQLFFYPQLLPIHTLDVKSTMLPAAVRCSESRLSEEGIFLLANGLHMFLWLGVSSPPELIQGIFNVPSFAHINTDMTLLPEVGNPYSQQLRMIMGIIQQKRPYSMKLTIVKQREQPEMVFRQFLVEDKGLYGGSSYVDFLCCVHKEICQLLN
# Variants of: B1
# Conditions: with lims1_human LIMS1, P48059
# Sequence of lims1_human LIMS1, P48059 (P48059 whole entry): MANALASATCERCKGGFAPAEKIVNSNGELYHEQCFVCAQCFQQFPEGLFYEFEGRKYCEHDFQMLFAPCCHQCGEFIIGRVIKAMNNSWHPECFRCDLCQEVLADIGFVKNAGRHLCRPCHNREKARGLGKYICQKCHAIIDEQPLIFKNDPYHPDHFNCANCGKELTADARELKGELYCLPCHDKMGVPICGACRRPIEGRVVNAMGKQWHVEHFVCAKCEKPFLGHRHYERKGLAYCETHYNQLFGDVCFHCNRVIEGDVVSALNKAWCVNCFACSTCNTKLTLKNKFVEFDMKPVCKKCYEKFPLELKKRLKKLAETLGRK
row,Variant,effect of a mutation on the interaction
1,E320K,with no effect

# Variants of: B2
# Conditions: with dcup_human UROD
row,Variant,effect of a mutation on the interaction
1,P71T,with no effect

# Variants of: B3
# Conditions: with imp3_human IMP3, Q9NV31
row,Variant,effect of a mutation on the interaction
1,R489W,with no effect
2,R563Q,with no effect

# Variants of: B4
# Conditions: with pkp2_human PKP2, Q99959
row,Variant,effect of a mutation on the interaction
1,A89V,with no effect

# Variants of: B5
# Conditions: with sc24d_human SEC24D
row,Variant,effect of a mutation on the interaction
1,V426I,with no effect
